The record followed here is patent publication US11298402B2, “Lysosomal degradation of lipids and proteins and method of use thereof” (University of Ottawa, priority 2015, dated 2022).

In data set [1] the test system is hepatic cells. The data set is described as follows: Prolonged oleate treatment (OA-induced steatosis) of hepatic cells. The data set is classed as cell-based. As to conditions: for steatosis (CLD accumulation): oleate 0.4 mM for up to 3 days. An excerpt:
FIG. 36 illustrates that the LD content in cells cultured under lipid-rich conditions may be manipulated by expression of different forms of Arl8b. Images in the top row show position of lysosomes in cells cultured in a lipid-rich medium (i.e. supplemented with oleate) for up to 4 days. After 1-day treatment with oleate, lysosomes (stained with LysoTracker, green) were accumulated in the perinuclear regions of cells. However after 2-day oleate treatment, lysosomes were relocated towards the LDs at cell periphery. The relocation of lysosomes from the perinuclear region toward cell periphery indicates perturbed lysosomal motility under oleate-treatment conditions, which leads to prolonged association of lysosomes with LDs. Accumulation/higher interaction of lysosomes on LDs became more pronounced after 3- and 4-day treatment with oleate, with clear rings of lysosomes around LDs. Expression of the GDP-bound form of Arl8b, or Arl8b^T34N (or Arl8b “DN”, dominant negative), protects hepatocytes from accumulation of LDs upon long-term treatment with oleate. Note that even after 3 days, cells expressing Arl8b “DN” were healthy and accumulated low numbers of LDs (middle row). In contrast, expression of the GTP-bound form of Arl8b, or Arl8b^Q75L (or Arl8b “DA”, dominant active), exacerbated accumulation of LDs in cells (images in the bottom row). In fact, the cells could not tolerate long-term treatment and started to die after day 2. This situation may be similar to that in advanced levels of fatty liver, which causes hepatocyte apoptosis;
In these cells, lysosomes were continuously in contact with CLD, indicative of stalled lysosomal motility. This persistent lysosomal interaction with CLDs (i.e. “kiss” without “run”) clearly indicates the interfered process of microautophagy and lack of a mechanism in the cells, after prolonged OA treatment, that facilitates dissociation of lysosomes from CLDs, blocking the engulfment process. Thus, phenotypically, accumulation of CLD in cells cultured in lipid-rich media (e.g. supplementation with 0.4 mM OA) is invariably associated with a compromised lysosomal motility (i.e. kiss-and-run).

In data set [2] the test system is primary neurons from parkinsonian mice. The data set is described as follows: Lysosome and cell morphology in Parkinson's disease primary neurons. The data set is classed as cell-based, mouse.
Data set [3] has as its system C57BL/6 mice. Description: Diet-induced fatty liver mouse model (high-fat-high-sucrose diet), Oil Red O. As to conditions: adenovirus injected 1 day before HFHS diet for up to 4 days. In kind it is in vivo. The method, then:
The respective Arl8b^T34N (DN), Arl8b^Q75L (DA), and Arl8b^WT constructs, along with empty virus (EV; control treatment) were injected into mice 1 day prior to feeding with a high fat diet for up to 4 days. The livers were stained with Oil Red O to determine the lipid contents, under the expression of various forms of Arl8b.
In these experiments, C57BL/6 mice were injected with adenovirus encoding different variants, namely Arl8b^T34N, Arl8b^Q75L, and Arl8b^WT. In these mice, expression of Arl8b proteins encoded by the adenoviral vectors lasts at least a few weeks. Thus, 1-day after viral injection, the mice were placed on a high-fat-high-sucrose (HFHS) diet for up to 4 days.

Data set [4] has as its system McA-RH7777 cells (A18-C3). The data set is described as follows: Immuno-EM of Arl8b organellar association. Particulars: RFP-tagged Arl8b in transfected cells, 1 h post-EPA. The data set is classed as cell-based, rat. The method, then:
For immunogold labeling, pellets of cells cultured in media containing OA or EPA (0.4 mM) were fixed with 0.5% glutaraldehyde and 4% paraformaldehyde in 0.1 M phosphate buffer (pH 7.4) and dehydrated through a series of graded ethanol dilutions, and embedded in LR White acrylic resin (London Resin Company). Ultrathin sections (80 nm) were placed on Formvar-coated nickel grids. For post-embedding immunolabeling, the sections were incubated with an anti-Arl8b antibody (Fitzgerald) for 1 h. For ^RFPArl8b-transfected cells, that primary antibody used was anti-RFP (Abcam). After washing with 0.2 M sodium cacodylate buffer containing 0.1% calcium chloride, pH 7.4, the samples were incubated with the secondary antibody conjugated with 10-nm gold particles. To increase contrast, the ultrathin sections were stained with 2% uranyl acetate for 6 min and Reynold's lead for 5 min. The grids were examined with a Tecnai 12 120 kV TEM as described above.

Data set [5] deals with McA-RH7777 cells (A18-C3). The data set is described as follows: Autophagic flux (Cyto-ID assay). In kind it is cell-based, rat. The method, then:
In certain non-limiting examples described herein, McA-RH7777 cells stably expressing human apoB-100 and human apoC-III (designated A18-C3) were used for the studies. […] In addition, these studies, particularly those concerning EPA- or DHA-triggered lysosomal motility and CLD degradation, were also performed using primary rat hepatocytes. Transfection of plasmids encoding proteins of interest, or transfection of siRNA specific for silencing target gene expression, was achieved using the FuGENE HP Extreme reagent (Roche). […] Quantification of cell lipid contents was achieved either by direct mass measurement (HPTLC) and counting the number of lipid droplets using Image J Lipid Droplet Counter Plug-In, or indirectly by Western blot analysis of cellular content of ADRP. Secretion of apoB and TG-rich lipoprotein was determined by Western blot analysis and metabolic labeling. Mitochondrial β-oxidation was measured using MitoSOX Red (Life Technologies) in situ. Autophagic flux was determined by using Cyto-ID assay (Enzo Life Science) and by monitoring GFP-LC3 clustering in situ. Interaction of Arl8b and subunits of the HOPS complex was determined in situ by the proximity ligation assay (Olink Biosience). Cytoplasmic pH was measured using the cytosolic pHrodo indicator reagent (Invitrogen). […]

Where [6] appears, read: transfection of PD primary neurons.

Changes are numbered by the printed parent chain. Names and notes keep the numbering of the source. “Also recorded” adds a separate entry of the source.

B1: Arl8b^T34N: putative GDP-bound, dominant negative Arl8b mutant (Thr-to-Asn at 34; SEQ ID NO: 12), expressed from plasmid or adenovirus Adv-MG1023; tagged forms used (protein)
chain: MLALISRLLDWFRSLFWKEEMELTLVGLQYSGKNTFVNVIASGQFSEDMIPTVGFNMRKVTKGNVTIKIWDIGGQPRFRSMWERYCRGVNAIVYMIDAADREKIEASRNELHNLLDKPQLQGIPVLVLGNKRDLPNALDEKQLIEKMNLSAIQDREICCYSISCKEKDNIDITLQWLIQHSKSRRS
modifications: GFP/RFP tags in some forms; T34N substitution, GDP-binding
notes: tagged forms used
With B1, the “steatosis (CLD accumulation)” value in data set [1] was “without indication of steatosis”. Further, in data set [2] (setting [6]), the “axonal swelling and degeneration in PD primary neurons” value was “restored axonal swelling and degeneration; also recorded: restore axons”; the “lysosomal phenotype (ring shape structure) in PD primary neurons” value is “cleared the ring shape structure of lysosomes”. Further, the “liver steatosis (Oil Red O)” value in data set [3] is “nearly absent lipid accumulation”. Moreover, in data set [4], the “organellar association (lysosome vs CLD)” value is reported as “mainly CLD-borne”. Moreover, the “autophagic flux upon EPA treatment in transfected cells” value in data set [5] is given as “does not induce autophagic flux”.

B2: Arl8b^Q75L: putative GTP-bound, dominant active Arl8b mutant (Gln-to-Leu at 75; SEQ ID NO: 13), expressed from plasmid or adenovirus Adv-MG1022; tagged forms used (protein)
chain: B1 chain with N34T, Q75L
modifications: GFP/RFP tags in some forms; Q75L substitution, GTP-binding
notes: tagged forms used
As for B2, in data set [1] (medium with 0.4 mM OA, 2-day incubation), the “cell survival under OA treatment” value is given as “most of the cells died”. In data set [1], the “steatosis (CLD accumulation)” value is “developed severe steatosis”. In data set [2] (transfection of normal primary neurons), the “lysosomal phenotype of normal primary neurons” value is “converts normal neuronal lysosomes to PD primary neuron phenotype”. The “liver steatosis (Oil Red O)” value in data set [3] is listed as “developed pronounced steatosis”. Besides, the “organellar association (lysosome vs CLD)” value in data set [4] is listed as “predominately associated with lysosomes”.
